In this assay the target is T1, hyperphosphorylated (pathological) tau from human Alzheimer's disease brain, phosphorylated at serine 396 (human, UniProt P10636 2-758, phosphoserine at 396; hyperphosphorylated at further sites that are not listed).
T1 construct: Brain-derived material (sections, S1, S1p and sarkosyl-insoluble P3 fractions, PBS extracts), a mixture of isoforms and aggregates; also called AD-P3; AD-P3 antigens
As to the kind of experiment: binding of pathological versus non-pathological tau, brain material (Table 5).

T1 sequence (P10636 other isoform, or with tags, fused parts or gaps limits assumed): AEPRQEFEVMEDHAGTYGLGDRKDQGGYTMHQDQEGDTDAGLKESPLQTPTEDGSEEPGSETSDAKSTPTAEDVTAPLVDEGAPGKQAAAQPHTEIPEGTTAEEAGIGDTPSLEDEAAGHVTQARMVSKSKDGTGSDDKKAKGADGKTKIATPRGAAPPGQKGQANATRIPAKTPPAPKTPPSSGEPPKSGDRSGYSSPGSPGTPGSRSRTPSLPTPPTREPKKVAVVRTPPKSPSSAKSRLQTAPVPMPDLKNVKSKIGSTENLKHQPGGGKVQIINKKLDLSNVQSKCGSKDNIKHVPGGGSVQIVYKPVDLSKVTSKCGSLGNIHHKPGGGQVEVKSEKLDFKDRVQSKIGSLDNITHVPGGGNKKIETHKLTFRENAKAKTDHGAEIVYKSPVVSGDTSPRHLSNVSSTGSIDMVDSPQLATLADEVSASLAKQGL

B1: IPN002 (antibody, V domains shown)
VH: EVHLVESGGALVKPGGSLKLSCAASGFSFSKYGMSWVRQTPDKRLEWVATISSSGSRTYYPDSVKGQFTISRDNAKNTLYLQMSSLKSEDTAMYYCSISWDGAMDYWGQGTSVTVSS
VL: DVLMTQTPLSLPVSLGDQASISCKSSQSIVHSNGNTYLEWYLQKPGQSPKLLVYKVSNRFSGVPDRFSGSGSGTDFTLKISRVEAEDLGTYYCFQGSLVPWAFGGGTKLEIK
Regarding B1, the “AD/ctrl (ratio of binding to AD brain tau over control brain tau)” value was 3 fold.

B2: HJ8.5 (antibody, V domains shown)
VH: EVKVEESGGGLVQPGGSMKLSCVVSGFTFSNYWVNWVRQSPEKGLEWVAQIRLKSDNYATHYEESVKGRFTISRDDSKSSVYLQMNNLRAEDSGIYYCTNWEDYWGQGTTLTVSS
VL: DIVLTQSPASLAVSLGQRATISCRASQSVSTSRYSYIHWYQQKPGQPPKLLIKYASNLESGVPARFSGSGSGTDFTLNIHPLEEEDAATYYCHHSWEIPLTFGAGTKLELK
As for B2, the “AD/ctrl (ratio of binding to AD brain tau over control brain tau)” value came out at 3 fold.

For the origin of these results see patent US20190284266A1 (H LUNDBECK A S, published 2019).
